The RNAGym collection of RNA variant scans (doi:10.7554/elife.80360)

B1: HDV Ribozyme (parent)
chain: GGCCGGCAUGGUCCCAGCCUCCUCGCUGGCGCCGGCUGGGCAACAUUCCGAGGGGACCGUCCCCUCGGUAAUGGCGAAUGGGACCCA

Variants of: B1
Assay: self-cleavage, relative activity (ratio to wild type); higher = more cleavage; co-transcriptional

| Variant | self-cleavage |
| --- | --- |
| GGCCGGCAUGGUCCCAGCCUCCUGGCUGGCGCCGGCUGGGCAACAUUCCGAGGGGACCGUUCCCUCGGUAAUGGCGAAUGGGACCCA | 0.166 |
| GGCCGGCAUGGUCCCAGCCUCCUGGCUGGCGCCGGUUGGGCAACAUUCCGAGGGGACCGUCCCCUCGGUAAUGGCGAAUGGGACCCA | 0.0627 |
| GGCCGGCAUGGUCCCAGCCUCCUGGUUGGCGCCGGCUGGGCAACAUUCCGAGGGGACCGUCCCCUCGGUAAUGGCGAAUGGGACCCA | 0.514 |
| GGCCGGCAUGGUCCCAGCCUCCUGGGUGGCGCCGGCUGGGCAACAUUCCGAGGGGACCGUCCCCUCGGUAAUGGCGAAUGGGACCCA | 0.277 |
| GGCCGGCAUGGUCCCAGCCUCCUGGCUGGUGCCGGCUGGGCAACAUUCCGAGGGGACCGUCCCCUCGGUAAUGGCGAAUGGGACCCA | 0.0712 |
| GGCCGGCAUGGUCCCAGCCUCCUGGCUGGAGCCGGCUGGGCAACAUUCCGAGGGGACCGUCCCCUCGGUAAUGGCGAAUGGGACCCA | 0.0898 |
| GGCCGGCAUGGUCCCAGCCUCCUGGCUGGCGCCGGCUGUGCAACAUUCCGAGGGGACCGUCCCCUCGGUAAUGGCGAAUGGGACCCA | 0.0314 |
| GGCCGGCAUGGUCCCAGCCUCCUGGCUGGCUCCGGCUGGGCAACAUUCCGAGGGGACCGUCCCCUCGGUAAUGGCGAAUGGGACCCA | 0.0604 |
| GGCCGGCAUGGUCCCAGCCUCCUGGCUGGCACCGGCUGGGCAACAUUCCGAGGGGACCGUCCCCUCGGUAAUGGCGAAUGGGACCCA | 0.0594 |
| GGCCGGCAUGGUCCCAGCCUCCUGUCUGGCGCCGGCUGGGCAACAUUCCGAGGGGACCGUCCCCUCGGUAAUGGCGAAUGGGACCCA | 0.0773 |
| GGCCGGCAUGGUCCCAGCCUCCUGGCUGGCGACGGCUGGGCAACAUUCCGAGGGGACCGUCCCCUCGGUAAUGGCGAAUGGGACCCA | 0 |
| GGCCGGCAUGGUCCCAGCCUCCUGGCUGGCGGCGGCUGGGCAACAUUCCGAGGGGACCGUCCCCUCGGUAAUGGCGAAUGGGACCCA | 0.0504 |
| GGCCGGCAUGGUCCCAGCCUCCUGGCUGGCGUCGGCUGGGCAACAUUCCGAGGGGACCGUCCCCUCGGUAAUGGCGAAUGGGACCCA | 0.0773 |
| GGCCGGCAUGGUCCCAGCCUCCUGGCUGGCGCCGGCUGGCCAACAUUCCGAGGGGACCGUCCCCUCGGUAAUGGCGAAUGGGACCCA | 0.0222 |
| GGCCGGCAUGGUCCCAGCCUCCUGGCUGGCGCCGGCUGGACAACAUUCCGAGGGGACCGUCCCCUCGGUAAUGGCGAAUGGGACCCA | 0.112 |
| GGCCGGCAUGGUCCCAGCCUCCUGGCUGGCGCCGGCUGGGCAACAUUCCGAGGGGACCGUCCCCUCGGUAAUGGCGAAUGGGACCCU | 0.0902 |

| Variant | self-cleavage |
| --- | --- |
| GGCCGGCAUGGUCCCAGCCUCCUGGCUGGCGCCGGCUGGGCAACAUUCCGAGGGGACCGUCCCCUCGGUAAUGGCGAAUGGGACCCC | 0.128 |
| GGCCGGCAUGGUCCCAGCCUCCUGGCUGGCGCCGGCUGGGCAACAUUCCGAGGGGACCGUCCCCUCGGUAAUGGCGAAUGGGACCCG | 0.137 |
| GGCCGGCAUGGUCCCAGCCUCCUGGCUGGCGCCGGCUGGGAAACAUUCCGAGGGGACCGUCCCCUCGGUAAUGGCGAAUGGGACCCA | 0.113 |
| GGCCGGCAUGGUCCCAGCCUCCUGGCUGGCGCCGGCUGGGCAACAUUCCGAGGGGACCGUCGCCUCGGUAAUGGCGAAUGGGACCCA | 0.0415 |
| GGCCGGCAUGGUCCCAGCCUCCUGGCUGGCGCCGGCUGGGCAACAUUCCGAGGGGACCGUCUCCUCGGUAAUGGCGAAUGGGACCCA | 0.142 |
| GGCCGGCAUGGUCCCAGCCUCCUGGCUGGCGCCGGCUGGGCAACAUUCCGAGGGGACCGUCCCCUCGGUAAUGGCGAAUGGGAUCCA | 0.12 |
| GGCCGGCAUGGUCCCAGCCUCCUGGCUGGCGCCGGCUGGGCAACAUUCCGAUGGGACCGUCCCCUCGGUAAUGGCGAAUGGGACCCA | 0.0852 |
| GGCCGGCAUGGUCCCAGCCUCCUGGCUGUCGCCGGCUGGGCAACAUUCCGAGGGGACCGUCCCCUCGGUAAUGGCGAAUGGGACCCA | 0.0692 |
| GGCCGGCAUGGUCCCAGCCUCCUGGCUGCCGCCGGCUGGGCAACAUUCCGAGGGGACCGUCCCCUCGGUAAUGGCGAAUGGGACCCA | 0 |
| GGCCGGCAUGGUCCCAGCCUCCUGGCUGACGCCGGCUGGGCAACAUUCCGAGGGGACCGUCCCCUCGGUAAUGGCGAAUGGGACCCA | 0.188 |
| GGCCGGCAUGGUCCCAGCCUCCUGGCUCGCGCCGGCUGGGCAACAUUCCGAGGGGACCGUCCCCUCGGUAAUGGCGAAUGGGACCCA | 0.214 |
| GGCCGGCAUGGUCCCAGCCUCCUGGCUAGCGCCGGCUGGGCAACAUUCCGAGGGGACCGUCCCCUCGGUAAUGGCGAAUGGGACCCA | 0.148 |
| GGCCGGCAUGGUCCCAGCCUCCUGGCUUGCGCCGGCUGGGCAACAUUCCGAGGGGACCGUCCCCUCGGUAAUGGCGAAUGGGACCCA | 0.0594 |
| GGCCGGCAUGGUCCCAGCCUCCUGGCUGGCGCCCGCUGGGCAACAUUCCGAGGGGACCGUCCCCUCGGUAAUGGCGAAUGGGACCCA | 0.0437 |
| GGCCGGCAUGGUCCCAGCCUCCUGGCUGGCGCCAGCUGGGCAACAUUCCGAGGGGACCGUCCCCUCGGUAAUGGCGAAUGGGACCCA | 0.0332 |
| GGCCGGCAUGGUCCCAGCCUCCUGGCUGGCGCCUGCUGGGCAACAUUCCGAGGGGACCGUCCCCUCGGUAAUGGCGAAUGGGACCCA | 0.0268 |
